The results in this text go back to patent US10703784B2, “Antigens and epitopes derived from Mycobacterium tuberculosis” (priority 2011, dated 2020).

In assay [1] the test system is PBMCs depleted of CD4+ or CD8+ T cells. The format is cell-based, human.
Assay [2] has as its system PBMCs from LTBI donors (IFN-γ production). Format: cell-based, human. As to conditions: for Resp. freq.: fraction of 28 LTBI donors responding to epitopes of the antigen; for Resp. freq. / Total SFC: ex vivo IFN-γ ELISPOT; for Total SFC: total spot-forming cells, LTBI donors.

Where “and” joins values, the source holds several entries; their conditions need not be identical. Identical values can stand only once. Like-named read-outs stand apart in the source and are kept apart here.

For AAASWDALAAELASA, the T cell phenotype entry in assay [1] (phenotype of the responding T cells per donor, n.d. = assay not done) was “CD4”. For the same molecule, the SFC in assay [2] (individual MTB epitope peptide, one value per responding LTBI donor) was 217.5 and 130.0 and 440.8.
Consider AVLVATNFFGINTIP, for which the T cell phenotype result in assay [1] was “CD4 and undetectable”.
On to GAMVATNFFGINTIP, for which the T cell phenotype entry in assay [1] was “CD4 and undetectable”.

B1: Rv0987: MTB protein, novel CD4 T cell antigen; Cell wall and cell processes (protein, listed as Mycobacterium tuberculosis)
chain: MNDQAPVAYAPLWRTAWRRLRQRPFQYILLVLGIALGVAMIVAIDVSSNSAQRAFDLSAAAITGKSTHRLVSGPAGVDQQLYVDLRRHGYDFSAPVIEGYVLARGLGNRAMQFMGTDPFAESAFRSPLWSNQNIAELGGFLTRPNGVVLSRQVAQKYGLAVGDRIALQVKGAPTTVTLVGLLTPADEVSNQKLSDLIIADISTAQELFHMPGRLSHIDLIIKDEATATRIQQRLPAGVRMETSDTQRDTVKQMTDAFTVNLTALSLIALLVGIFLIYNTVTFNVVQRRPFFAILRCLGVTREQLFWLIMTESLVAGLIGTGLGLLIGIWLGEGLIGLVTQTINDFYFVINVRNVSVSAESLLKGLIIGIFAAMLATLPPAIEAMRTVPASTLRRSSLESKITKLMPWLWVAWFGLGSFGVLMLWLPGNNLVVAFVGLFSVLIALALIAPPLTRFVMLRLAPGLGRLLGPIGRMAPRNIVRSLSRTSIAIAALMMAVSLMVGVSISVGSFRQTLANWLEVTLKSDVYVSPPTLTSGRPSGNLPVDAVRNISKWPGVRDAVMARYSSVFAPDWGREVELMAVSGDISDGKRPYRWIDGNKDTLWPRFLAGKGVMLSEPMVSRQHLQMPPRPITLMTDSGPQTFPVLAVFSDYTSDQGVILMDRASYRAHWQDDDVTTMFLFLASGANSGALIDQLQAAFAGREDIVIQSTHSVREASMFIFDRSFTITIALQLVATVVAFIGVLSALMSLELDRAHELGVFRAIGMTTRQLWKLMFIETGLMGGMAGLMALPTGCILAWILVRIINVRSFGWTLQMHFESAHFLRALLVAVVAALAAGMYPAWRLGRMTIRTAIREE
Take B1: in assay [2], the Resp. freq. was 11% and the “Total SFC” value worked out at 133 SFC.

B2: Rv2490c: MTB protein, novel CD4 T cell antigen; PE/PPE (protein, listed as Mycobacterium tuberculosis)
chain: MQSMSFDPAVADIGSQVVNNAFQGLQAGAVAWVSLSSLLPAGAEEVSAWAVTAFTTAATGLLALNQAAQEELRKAGEVFTAIARMYSDADVRAAACLLEAIPRPGQTLARE
On to B2, for which, in assay [2], the Resp. freq. was determined as 11% and the “Total SFC” value is recorded as 64 SFC.

B3: Rv3024c: MTB protein, novel CD4 T cell antigen; Information pathways, Island 2 (protein, listed as Mycobacterium tuberculosis)
chain: MKVLAAMSGGVDSSVAAARMVDAGHEVVGVHMALSTAPGTLRTGSRGCCSKEDAADARRVADVLGIPFYVWDFAEKFKEDVINDFVSSYARGETPNPCVRCNQQIKFAALSARAVALGFDTVATGHYARLSGGRLRRAVDRDKDQSYVLAVLTAQQLRHAAFPIGDTPKRQIRAEAARRGLAVANKPDSHDICFIPSGNTKAFLGERIGVRRGVVVDADGVVLASHDGVHGFTIGQRRGLGIAGPGPNGRPRYVTAIDADTATVHVGDVTDLDVQTLTGRAPVFTAGAAPSGPVDCVVQVRAHGETVSAVAELIGDALFVQLHAPLRGVARGQTLVLYRPDPAGDEVLGSATIAGASGLSTGGNPGA
Take B3: in assay [2], the Resp. freq. is 32% and the “Total SFC” value came to 1630 SFC.

B4: Rv0690c: MTB protein, novel CD4 T cell antigen; Conserved hypotheticals (protein, listed as Mycobacterium tuberculosis)
chain: MTGTEHLVHTLRSQGRVCTSSGSPMYRELLELVAADVESGGVFASILADQKGAPEGQAVPLRLLGGLHRMVLDGRAPVLRRWYPSTGGTWQAEAAWPDIVRTATDQPESLRAALDRPPQTNEVGRSAALIGGLLIACLQFDLPIRLFEIGSSAGLNLRPDRYRYRYLGGEWGLADSPVRIDNAWLGELPPTATVRIVERHGYDIAPIDVTSPDGELNALSYIWPDQTDRLERLRGAIAVARNIPADLHRQAAHAAVAGMTLTDDALTVLWHSITWQYLPADERAAIRAGIDALAAQADAHCPFVHLTLEPAHQRPGAQIKYLVRMRSWPGGHARVLGECHPHGPPVTWQ
Take B4: in assay [2], the Resp. freq. was 11% and the “Total SFC” value was determined as 233 SFC.

B5: Rv1366: MTB protein, novel CD4 T cell antigen; Conserved hypotheticals (protein, listed as Mycobacterium tuberculosis)
chain: MVVALVGSAIVDLHSRPPWSNNAVRRLGVALRDGVDPPVDCPSYAEVMLWHADLAAEVQDRIEGRSWSASELLVTSRAKSQDTLLAKLRRRPYLQLNTIQDIAGVRIDADLLLGEQTRLAREIADHFGADQPAIHDLRDHPHAGYRAVHVWLRLPAGRVEIQIRTILQSLWANFYELLADAYGRGIRYDERPEQLAAGVVPAQLQELVGVMQDASADLAMHEAEWQHCAEIEYPGQRAMALGEASKNKATVLATTKFRLERAINEAESAGGGG
For B5, in assay [2], the Resp. freq. was 11% and the “Total SFC” value is reported as 308 SFC.

B6: Rv0985c: MTB protein, novel CD4 T cell antigen; Cell wall and cell processes (protein, listed as Mycobacterium tuberculosis)
chain: MLKGFKEFLARGNIVDLAVAVVIGTAFTALVTKFTDSIITPLINRIGVNAQSDVGILRIGIGGGQTIDLNVLLSAAINFFLIAFAVYFLVVLPYNTLRKKGEVEQPGDTQVVLLTEIRDLLAQTNGDSPGRHGGRGTPSPTDGPRASTESQ
Turning to B6, in assay [2], the Resp. freq. came out at 11% and the “Total SFC” value amounted to 70 SFC.

B7: Rv1441c: MTB protein, novel CD4 T cell antigen; PE/PPE (protein, listed as Mycobacterium tuberculosis)
chain: MSNVMVVPGMLSAAAADVASIGAALSAANGAAAPTTAGVLAAGADEVSAAIASLFSGYARDYQALSAQMARFHQQFVQALTASVGSYAAAEAANASPLQALEQQVLAAINAPTQTLLGRPLIGNGADGLPGQNGGAGGLLWGNGGNGGAGDAAHPNGGNGGDAGMFGNGGAGGAGYSPAAGTGAAGGAGGAGGAGGWLSGNGGAGGNGGTGASGADGGGGLPPVPASPGGNGGGGDAGGAAGMFGTGGAGGTGGDGGAGGAGDSPNSGANGARGGDGGNGAAGGAGGRLFGNGGAGGNGGTAGQGGDGGTALGAGGIGGDGGTGGAGGTGGTAGIGGSSAGAGGAGGDGGAGGTGGGSSMIGGKGGTGGNGGVGGTGGASALTIGNGSSAGAGGAGGAGGTGGTGGYIESLDGKGQAGNGGNGGNGAAGGAGGGGTGAGGNGGAGGNGGDGGPSQGGGNPGFGGDGGTGGPGGVGVPDGIGGANGAQGKHG
Turning to B7, in assay [2], the Resp. freq. is given as 11% and the “Total SFC” value was 86 SFC.

B8: Rv0290: MTB protein, novel CD4 T cell antigen; Cell wall and cell processes, Island 1, Esx-3 (protein, listed as Mycobacterium tuberculosis)
chain: MSGTVMQIVRVAILADSRLTEMALPAELPLREILPAVQRLVVPSAQNGDGGQADSGAAVQLSLAPVGGQPFSLDASLDTVGVVDGDLLVLQPVPAGPAAPGIVEDIADAAMIFSTSRLKPWGIAHIQRGALAAVIAVALLATGLTVTYRVATGVLAGLLAVAGIAVASALAGLLITIRSPRSGIALSIAALVPIGAALALAVPGKFGPAQVLLGAAGVAAWSLIALMIPSAERERVVAFFTAAAVVGASVALAAGAQLLWQLPLLSIGCGLIVAALLVTIQAAQLSALWARFPLPVIPAPGDPTPSAPPLRLLEDLPRRVRVSDAHQSGFIAAAVLLSVLGSVAIAVRPEALSVVGWYLVAATAAAATLRARVWDSAACKAWLLAQPYLVAGVLLVFYTATGRYVAAFGAVLVLAVLMLAWVVVALNPGIASPESYSLPLRRLLGLVAAGLDVSLIPVMAYLVGLFAWVLNR
For B8, in assay [2], the Resp. freq. came out at 29% and the “Total SFC” value is reported as 1552 SFC.

B9: Rv1317c: MTB protein, novel CD4 T cell antigen; Information pathways (protein, listed as Mycobacterium tuberculosis)
chain: MHDDFERCYRAIQSKDARFDGWFVVAVLTTGVYCRPSCPVRPPFARNVRFLPTAAAAQGEGFRACKRCRPDASPGSPEWNVRSDVVARAMRLIADGTVDRDGVSGLAAQLGYTIRQLERLLQAVVGAGPLALARAQRMQTARVLIETTNLPFGDVAFAAGFSSIRQFNDTVRLACDGTPTALRARAAARFESATASAGTVSLRLPVRAPFAFEGVFGHLAATAVPGCEEVRDGAYRRTLRLPWGNGIVSLTPAPDHVRCLLVLDDFRDLMTATARCRRLLDLDADPEAIVEALGADPDLRAVVGKAPGQRIPRTVDEAEFAVRAVLAQQVSTKAASTHAGRLVAAYGRPVHDRHGALTHTFPSIEQLAEIDPGHLAVPKARQRTINALVASLADKSLVLDAGCDWQRARGQLLALPGVGPWTAEVIAMRGLGDPDAFPASDLGLRLAAKKLGLPAQRRALTVHSARWRPWRSYATQHLWTTLEHPVNQWPPQEKIA
In the case of B9, in assay [2], the Resp. freq. is reported as 11% and the “Total SFC” value stood at 97 SFC.

B10: Rv1172c: MTB protein, novel CD4 T cell antigen; PE/PPE (protein, listed as Mycobacterium tuberculosis)
chain: MSFVFAAPEALAAAAADMAGIGSTLNAANVVAAVPTTGVLAAAADEVSTQVAALLSAHAQGYQQLSRQMMTAFHDQFVQALRASADAYATAEASAAQTMVNAVNAPARALLGHPLISADASTGGGSNALSRVQSMFLGTGGSSALGGSAAANAAASGALQLQPTGGASGLSAVGALLPRAGAAAAAALPALAAESIGNAIKNLYNAVEPWVQYGFNLTAWAVGWLPYIGILAPQINFFYYLGEPIVQAVLFNAIDFVDGTVTFSQALTNIETATAASINQFINTEINWIRGFLPPLPPISPPGFPSLP
In the case of B10, in assay [2], the Resp. freq. was found to be 11% and the “Total SFC” value was determined as 237 SFC.

B11: Rv0442c: MTB protein, novel CD4 T cell antigen; PE/PPE (protein, listed as Mycobacterium tuberculosis)
chain: MTSPHFAWLPPEINSALMFAGPGSGPLIAAATAWGELAEKLLASIASLGSVTSELTSGAWLGPSAAAMMAVATQYLAWLSTAAAQAEQAAAQAMAIATAFEAALAATVQPAVVAANRGLMQLLAATNWFGQNAPALMDVEAAYEQMWALDVAAMAGYHFDASAAVAQLAPWQQVLRNLGIDIGKNGQINLGFGNTGSGNIGNNNIGNNNIGSGNTGTGNIGSGNTGSGNLGLGNLGDGNIGFGNTGSGNIGFGITGDHQMGFGGFNSGSGNIGFGNSGTGNVGLFNSGSGNIGIGNSGSLNSGIGTSGTINAGLGSAGSLNTSFWNAGMQNAALGSAAGSEAALVSSAGYATGGMSTAALSSGILASALGSTGGLQHGLANVLNSGLTNTPVAAPASAPVGGLDSGNPNPGSGSAAAGSGANPGLRSPGTSYPSFVNSGSNDSGLRNTAVREPSTPGSGIPKSNFYPSPDRESAYASPRIGQPVGSE
Take B11: in assay [2], the Resp. freq. was 11% and the “Total SFC” value is given as 232 SFC.
